Two molecules from article PMC4773420 (Nature Communications, 2016) can be followed below.

Series [1] has as its target 6His-PABPC1(1-190) (human, UniProt P11940 1-190). Description: EMSA; 100 nM RNA; complete shift at 7 pmol protein per 1 pmol RNA; EMSA: 100 nM 5'-fluorescein RNA, native PAGE; EMSA buffer not in the material (deadenylation assays: 20 mM HEPES-KOH pH 8.0, 100 mM KCl, 0.5 mM DTT, 0.1% Igepal). A general note: A gel shift assay detects complexes by their altered migration in electrophoresis.

In series [2] the target is 6His-PABPC1(FL) (human, UniProt P11940 1-636). Put plainly: EMSA; 100 nM RNA; complete shift at 7 pmol protein per 1 pmol RNA; multiple PABPC1 molecules bound; EMSA: 100 nM 5'-fluorescein RNA, native PAGE; EMSA buffer not in the material (deadenylation assays: 20 mM HEPES-KOH pH 8.0, 100 mM KCl, 0.5 mM DTT, 0.1% Igepal).
Sequence of 6His-PABPC1(FL) (P11940 whole entry): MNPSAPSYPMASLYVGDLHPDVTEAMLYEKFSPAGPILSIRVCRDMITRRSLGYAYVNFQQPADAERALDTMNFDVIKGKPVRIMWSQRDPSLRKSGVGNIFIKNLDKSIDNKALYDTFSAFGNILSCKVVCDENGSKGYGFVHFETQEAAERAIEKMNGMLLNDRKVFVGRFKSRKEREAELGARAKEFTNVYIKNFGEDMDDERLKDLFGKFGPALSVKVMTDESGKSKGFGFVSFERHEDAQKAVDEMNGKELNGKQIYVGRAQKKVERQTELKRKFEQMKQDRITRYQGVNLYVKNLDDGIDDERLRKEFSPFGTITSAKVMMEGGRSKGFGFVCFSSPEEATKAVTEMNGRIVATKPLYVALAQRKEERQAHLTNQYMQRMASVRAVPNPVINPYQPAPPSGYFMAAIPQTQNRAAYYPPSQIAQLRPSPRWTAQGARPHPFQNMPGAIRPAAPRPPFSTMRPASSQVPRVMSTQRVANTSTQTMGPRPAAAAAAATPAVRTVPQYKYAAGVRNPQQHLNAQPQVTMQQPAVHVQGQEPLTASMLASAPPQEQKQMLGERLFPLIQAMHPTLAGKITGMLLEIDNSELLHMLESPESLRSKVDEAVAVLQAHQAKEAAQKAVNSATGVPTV
Series [3] has as its target T1, 6His-PABPC1(1–190) (human, UniProt P11940 1-190).
T1 construct: PABPC1, human, RRM domains 1 and 2, amino acids 1-190; also called 6His-tagged PABPC1 RRM domains 1 and 2; first two RRMs of PABPC1; source: E. coli BL21-CodonPlus; co-expressed, in lysate (pull-down); purified (HisTrap FF crude, Superdex 75)
Description: AUC; analytical ultracentrifugation of BTG2(APRO) (GST removed) and 6His-PABPC1(1–190), both purified to homogeneity; no RNA (Supplementary Fig. 2). The following applies: both partners purified.

Broadly, the Kd is the equilibrium constant for the complex coming apart. The low end stands for tighter binding, the high end for weaker binding. By stoichiometry N is commonly meant a count of units in the complex or per binding partner.

T1 sequence (P11940 1-190): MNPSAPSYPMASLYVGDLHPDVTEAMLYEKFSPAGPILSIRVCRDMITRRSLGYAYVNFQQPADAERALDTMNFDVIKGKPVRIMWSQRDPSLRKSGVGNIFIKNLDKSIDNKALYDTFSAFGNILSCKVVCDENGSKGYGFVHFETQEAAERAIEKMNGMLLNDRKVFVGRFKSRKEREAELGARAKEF
Sequence of 6His-PABPC1(1-190) (P11940 1-190): as above

B1: 5'Fluo-poly(A)75 (ssRNA)
RNA: AAAAAAAAAAAAAAAAAAAAAAAAAAAAAAAAAAAAAAAAAAAAAAAAAAAAAAAAAAAAAAAAAAAAAAAAAAA
For the molecule B1, the binding result in series [1] and in series [2] was “binds” throughout.

B2: BTG2(APRO) (domain or fragment, human, UniProt P78543 1-126, looked up)
chain: MSHGKGTDMLPEIAAAVGFLSSLLRTRGCVSEQRLKVFSGALQEALTEHYKHHWFPEKPSKGSGYRCIRINHKMDPIISRVASQIGLSQPQLHQLLPSELTLWVDPYEVSYRIGEDGSICVLYEEA
notes: BTG2, human, APRO domain; also called BTG2 APRO domain, GST removed; source: E. coli BL21-CodonPlus, purified (GSTrap FF, thrombin cleavage, Superdex 75)
For the molecule B2, in series [3], the Kd is roughly 5 µM and the “stoichiometry N” value is 1.
